Reference: PMC11014985, “TCTP regulates genotoxic stress and tumorigenicity via intercellular vesicular signaling” (EMBO Reports, 2024)

Tests used:
[1] = target: TCTP (translationally controlled tumor protein) (human) (UniProt P13693); test: SPR; Biacore 2000; TCTP amine-coupled on CM5 chip (697 RU); DDX3 injected in two-fold dilutions 0.195 to 100 nM, 30 ul/min; HBS-EP (10 mM HEPES pH 7.2, 150 mM NaCl, 3 mM EDTA, 0.005% Tween 20); 25 C; global Langmuir binding with drifting baseline
[2] = target: TCTP (translationally controlled tumor protein) (human) (UniProt P13693); test: SPR; positive control for the SPR experiments; who was immobilised and the conditions are not told for TSAP6 (Appendix Fig. S2); also run with sertraline and thioridazine

Sequence of TCTP (translationally controlled tumor protein) (human) (P13693 whole entry): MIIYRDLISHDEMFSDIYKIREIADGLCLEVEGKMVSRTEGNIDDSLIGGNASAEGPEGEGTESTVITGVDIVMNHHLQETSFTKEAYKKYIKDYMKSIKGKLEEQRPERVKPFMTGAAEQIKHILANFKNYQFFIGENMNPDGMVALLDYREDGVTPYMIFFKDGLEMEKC

Kd [1] | Kd [2] | Substance
68.9 nM |  | DDX3 wild-type (from UniProt O00571 1-662)
 | 1000 nM | TSAP6 (Tumor Suppressor Activated Protein) (from UniProt Q658P3 1-488) (natural protein)
